Assay results as given in patent US20040006777A1 (HSC RESEARCH AND DEVELOPMENT LIMITED PARTNERSHIP, published 2004).

Columns and labels:
p125Fak = p125Fak (human, UniProt Q05397 2-1052, limits assumed); assay: western blot of Lyp immunoprecipitates from anti-CD3 stimulated human thymocytes
Procedure: (§1) (A) Lyp immunoprecipitates from thymocytes (80×10⁶ cells) stimulated with anti-CD3 were blotted with antiphsophotyrosine. […] Lyp protein loading was quantitated by anti-Lyp western blot after stripping. […] (C) Lyp1 was transfected into COS-7 cells and Cbl immunoprecipitates prepared from these and untransfected cells. Western blotting was performed with Lyp antibodies. The position of Lyp is indicted by an arrow. Cbl immunoprecipitates were also prepared and blotted with anti-phosphotyrosine (D), and then anti-Cbl after stripping.
(§2) One of the earliest events following TCR stimulation of T cells is the induction of tyrosine phosphorylation. In order to determine whether Lyp played a role in TCR signalling, human thymocytes were stimulated with anti-CD3 for various periods of time, Lyp immunoprecipitated and blotted with anti-phosphotyrosine. […] Once activated, the phosphorylation level of this protein remained constant over a period of 20 minutes. […] This interaction was also observed in the mature T cell line Jurkat (not shown) and further confirmed by transfection of Lyp1 into COS-7 cells and examining its association with the endogenous Cbl protein (FIG. 13C).

[1] = target: T1, p116 Jak3 (endogenous, human thymocytes) (human, UniProt P52333 1-1124, limits assumed); assay: as above
T1 sequence (looked up): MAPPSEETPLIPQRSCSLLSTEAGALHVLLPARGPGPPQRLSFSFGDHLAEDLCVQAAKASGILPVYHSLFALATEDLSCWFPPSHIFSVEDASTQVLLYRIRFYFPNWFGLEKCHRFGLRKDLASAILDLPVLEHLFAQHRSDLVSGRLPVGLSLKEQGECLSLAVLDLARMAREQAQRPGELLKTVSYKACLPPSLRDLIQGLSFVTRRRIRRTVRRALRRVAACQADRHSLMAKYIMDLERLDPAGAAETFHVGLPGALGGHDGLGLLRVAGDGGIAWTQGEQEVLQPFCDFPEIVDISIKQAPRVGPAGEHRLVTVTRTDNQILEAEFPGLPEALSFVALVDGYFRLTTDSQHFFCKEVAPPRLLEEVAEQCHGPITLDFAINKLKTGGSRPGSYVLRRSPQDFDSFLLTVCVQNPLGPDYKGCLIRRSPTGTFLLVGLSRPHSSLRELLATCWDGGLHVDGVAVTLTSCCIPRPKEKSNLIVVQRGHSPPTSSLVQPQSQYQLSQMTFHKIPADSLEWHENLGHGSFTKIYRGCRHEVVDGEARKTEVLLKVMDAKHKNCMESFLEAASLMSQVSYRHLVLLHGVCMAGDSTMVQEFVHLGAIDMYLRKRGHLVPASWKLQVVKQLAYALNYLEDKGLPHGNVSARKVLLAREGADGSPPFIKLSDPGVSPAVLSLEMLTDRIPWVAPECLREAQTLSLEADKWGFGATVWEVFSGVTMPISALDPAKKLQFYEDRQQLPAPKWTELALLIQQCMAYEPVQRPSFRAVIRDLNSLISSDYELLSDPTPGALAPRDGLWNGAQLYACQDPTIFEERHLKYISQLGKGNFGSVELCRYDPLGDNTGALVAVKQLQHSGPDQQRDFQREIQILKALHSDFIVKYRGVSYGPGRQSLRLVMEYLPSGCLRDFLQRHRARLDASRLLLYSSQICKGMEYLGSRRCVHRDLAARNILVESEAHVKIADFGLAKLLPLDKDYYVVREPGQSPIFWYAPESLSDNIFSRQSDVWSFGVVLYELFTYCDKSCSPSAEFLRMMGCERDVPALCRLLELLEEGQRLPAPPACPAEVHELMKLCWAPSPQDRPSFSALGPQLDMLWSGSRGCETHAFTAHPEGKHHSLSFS
Procedure: as §1, §2

Chain of p125Fak (Q05397 2-1052 limits assumed): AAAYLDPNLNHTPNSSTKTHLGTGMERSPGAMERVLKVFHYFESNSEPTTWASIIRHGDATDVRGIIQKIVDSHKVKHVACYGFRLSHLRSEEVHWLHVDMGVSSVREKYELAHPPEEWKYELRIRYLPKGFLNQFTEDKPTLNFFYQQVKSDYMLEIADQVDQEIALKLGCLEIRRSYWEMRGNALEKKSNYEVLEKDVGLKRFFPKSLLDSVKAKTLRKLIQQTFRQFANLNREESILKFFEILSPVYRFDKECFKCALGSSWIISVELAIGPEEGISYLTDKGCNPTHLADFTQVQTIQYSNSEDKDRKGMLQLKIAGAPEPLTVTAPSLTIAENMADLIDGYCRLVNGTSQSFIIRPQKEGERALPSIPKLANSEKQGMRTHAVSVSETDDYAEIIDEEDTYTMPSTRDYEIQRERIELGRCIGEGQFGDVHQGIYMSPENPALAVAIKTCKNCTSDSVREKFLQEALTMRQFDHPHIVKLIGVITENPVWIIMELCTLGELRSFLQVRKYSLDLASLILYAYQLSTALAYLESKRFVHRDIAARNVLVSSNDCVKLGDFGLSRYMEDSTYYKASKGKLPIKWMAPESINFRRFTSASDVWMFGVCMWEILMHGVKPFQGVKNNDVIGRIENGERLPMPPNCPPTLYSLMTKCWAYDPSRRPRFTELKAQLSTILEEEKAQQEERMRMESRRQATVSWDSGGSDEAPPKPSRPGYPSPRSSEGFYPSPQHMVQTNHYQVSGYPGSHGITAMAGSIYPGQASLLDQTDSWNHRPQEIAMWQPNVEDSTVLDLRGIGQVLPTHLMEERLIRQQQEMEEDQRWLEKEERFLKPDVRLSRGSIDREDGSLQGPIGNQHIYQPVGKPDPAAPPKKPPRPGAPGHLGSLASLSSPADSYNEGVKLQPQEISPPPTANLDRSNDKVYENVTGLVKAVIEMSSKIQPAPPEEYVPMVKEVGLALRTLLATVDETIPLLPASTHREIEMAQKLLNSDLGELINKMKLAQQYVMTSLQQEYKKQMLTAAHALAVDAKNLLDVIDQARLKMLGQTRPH

binding result (p125Fak): no binding | binding result [1]: no binding
B1: Lyp1 (human lymphoid protein tyrosine phosphatase, 105 kD) (enzyme)
chain: MDQREILQKFLDEAQSKKITKEEFANEFLKLKRQSTKYKADKTYPTTVAENAKNIKKNRYKDILPYDYSRVELSLITSDEDSSYINANFIKGVYGPKAYIATQGPLSTTLLDFWRMIWEYSVLIIVMACMEYEMGKKKCERYWAEPGEMQLEFGPFSVSCEAEKRKSDYIIRTLKVKFNSETRTIYQFHYKNWPDHDVPSSIDPILELIWDVRCYQEDDSVPICIHCSAGCGRTGVICAIVDYTWMLLKDGIIPENFSVFSLIREMRTQRPSLVQTQEQYELVYNAVLELFKRQMDVIRDKHSGTESQAKHCIPEKNHTLQADSYSPNLPKSTTKAAKMMNQQRTKMEIKESSSFDFRTSEISAKEELVLHPAKSSTSFDFLELNYSFDKNADTTMKWQTKAFPIVGEPLQKHQSLDLGSLLFEGCSNSKPVNAAGRYFNSKVPITRTKSTPFELIQQRETKEVDSKENFSYLESQPHDSCFVEMQAQKVMHVSSAELNYSLPYDSKHQIRNASNVKHHDSSALGVYSYIPLVENPYFSSWPPSGTSSKMSLDLPEKQDGTVFPSSLLPTSSTSLFSYYNSHSSLSLNSPTNISSLLNQESAVLATAPRIDDEIPPPLPVRTPESFIVVEEAGEFSPNVPKSLSSAVKVKIGTSLEWGGTSEPKKFDDSVILRPSKSVKLRSPKSELHQDRSSPPPPLPERTLESFFLADEDCMQAQSIETYSTSYPDTMENSTSSKQTLKTPGKSFTRSKSLKILRNMKKSICNSCPPNKPAESVQSNNSSSFLNFGFANRFSKPKGPRNPPPTWNI
notes: also called native Lyp1; pcDNA3-Lyp1
